Reference: publication PMC10786891, “Massively parallel profiling of RNA-targeting CRISPR-Cas13d”

T1: EsCas13d, nuclease-dead (Eubacterium siraeum, UniProt B0MS50, R295A;H300A;R849A;H854A)
T1 sequence: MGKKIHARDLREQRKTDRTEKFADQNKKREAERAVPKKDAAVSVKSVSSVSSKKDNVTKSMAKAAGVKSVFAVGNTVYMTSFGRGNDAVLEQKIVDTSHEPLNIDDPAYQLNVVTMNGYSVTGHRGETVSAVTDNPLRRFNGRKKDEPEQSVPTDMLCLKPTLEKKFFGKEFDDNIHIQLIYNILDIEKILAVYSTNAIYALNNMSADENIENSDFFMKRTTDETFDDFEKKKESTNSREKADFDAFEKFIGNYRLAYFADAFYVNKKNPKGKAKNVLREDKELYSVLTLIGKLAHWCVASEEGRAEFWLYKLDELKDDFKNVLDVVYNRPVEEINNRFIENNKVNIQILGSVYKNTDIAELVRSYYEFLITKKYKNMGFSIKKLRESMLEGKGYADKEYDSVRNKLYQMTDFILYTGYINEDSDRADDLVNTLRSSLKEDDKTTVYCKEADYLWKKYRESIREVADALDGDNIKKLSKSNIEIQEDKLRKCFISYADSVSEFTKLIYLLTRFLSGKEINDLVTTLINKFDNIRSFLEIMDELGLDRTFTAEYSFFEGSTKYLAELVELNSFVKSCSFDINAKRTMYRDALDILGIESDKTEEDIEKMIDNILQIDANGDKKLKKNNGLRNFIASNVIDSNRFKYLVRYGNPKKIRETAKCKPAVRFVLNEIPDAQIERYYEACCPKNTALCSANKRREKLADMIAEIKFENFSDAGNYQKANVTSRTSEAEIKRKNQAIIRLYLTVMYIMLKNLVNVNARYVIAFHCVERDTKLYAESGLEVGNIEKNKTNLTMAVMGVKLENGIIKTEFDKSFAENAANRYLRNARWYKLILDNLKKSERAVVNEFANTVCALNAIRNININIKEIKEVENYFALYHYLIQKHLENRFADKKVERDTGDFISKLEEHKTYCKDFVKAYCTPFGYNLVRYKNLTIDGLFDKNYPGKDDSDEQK


Biological target: T1, EsCas13d, nuclease-dead
Assay: crRNA (strand 1, pre-loaded); Mg2+; 40 mM Tris-HCl pH 7.5, 150 mM NaCl, 6 mM MgCl2, 1 mM DTT, 0.1% Tween-20, 0.2 mg/ml BSA; 25 C; 10 min per concentration, then washed
Conditions: tags: His6-TwinStrep-SUMO cleaved; N-terminal SNAP kept (SNAP-Surface 488); label: 3' end held by stalled T7 RNA polymerase

Binder | Kd [nM]
target 1 G5U,C21A (mixed) RNA 1: CACCCGUGCAAAAAUGCAGGGGUCUAAAACUGAGCGGAUAACCUCUCUAUGG RNA 2: GGGAAUGGAUCCACAUCUACGAAUUCGUACAAUAGAGAGGUUAUCCUCUCACCGAGAUCGGAAGAGCACACGU | ~40
target 1 insG 3' of 22,insC 3' of 12 (mixed) RNA 1: CACCCGUGCAAAAAUGCAGGGGUCUAAAACUGAGCGGAUAACCUCUCUAUGG RNA 2: GGGAAUGGAUCCACAUCUACGAAUUCGUACGCAUAGAGAGGCUUAUCCGCUCACCGAGAUCGGAAGAGCACACGU | 42 ± 6
target 2 MT 5'PFS GGU 3'PFS ACA (mixed) RNA 1: CACCCGUGCAAAAUUGCAGGGGUCUAAAACCUUCUCCAAAUUGUUUCAUCCU RNA 2: GGGAAUGGAUCCACAUCUACGAAUUCGGUAGGAUGAAACAAUUUGGAGAAGACAAGAUCGGAAGAGCACACGU | 13.4 ± 1.7
target 2 MT 5'PFS UGG 3'PFS CAA (mixed) RNA 1: CACCCGUGCAAAAUUGCAGGGGUCUAAAACCUUCUCCAAAUUGUUUCAUCCU RNA 2: GGGAAUGGAUCCACAUCUACGAAUUCUGGAGGAUGAAACAAUUUGGAGAAGCAAAGAUCGGAAGAGCACACGU | 4.7 ± 0.8
target 2 MT 5'PFS GCG 3'PFS UUC (mixed) RNA 1: CACCCGUGCAAAAUUGCAGGGGUCUAAAACCUUCUCCAAAUUGUUUCAUCCU RNA 2: GGGAAUGGAUCCACAUCUACGAAUUCGCGAGGAUGAAACAAUUUGGAGAAGUUCAGAUCGGAAGAGCACACGU | 21 ± 4
target 2 MT 5'PFS CGC 3'PFS UCC (mixed) RNA 1: CACCCGUGCAAAAUUGCAGGGGUCUAAAACCUUCUCCAAAUUGUUUCAUCCU RNA 2: GGGAAUGGAUCCACAUCUACGAAUUCCGCAGGAUGAAACAAUUUGGAGAAGUCCAGAUCGGAAGAGCACACGU | ~60
target 2 MT 5'PFS UGU 3'PFS UGU (mixed) RNA 1: CACCCGUGCAAAAUUGCAGGGGUCUAAAACCUUCUCCAAAUUGUUUCAUCCU RNA 2: GGGAAUGGAUCCACAUCUACGAAUUCUGUAGGAUGAAACAAUUUGGAGAAGUGUAGAUCGGAAGAGCACACGU | 18.9 ± 2.7
target 2 MT 5'PFS GCG 3'PFS AUC (mixed) RNA 1: CACCCGUGCAAAAUUGCAGGGGUCUAAAACCUUCUCCAAAUUGUUUCAUCCU RNA 2: GGGAAUGGAUCCACAUCUACGAAUUCGCGAGGAUGAAACAAUUUGGAGAAGAUCAGAUCGGAAGAGCACACGU | 10.1 ± 0.9
target 2 MT 5'PFS CAC 3'PFS UAC (mixed) RNA 1: CACCCGUGCAAAAUUGCAGGGGUCUAAAACCUUCUCCAAAUUGUUUCAUCCU RNA 2: GGGAAUGGAUCCACAUCUACGAAUUCCACAGGAUGAAACAAUUUGGAGAAGUACAGAUCGGAAGAGCACACGU | 1.66 ± 0.25
target 2 MT 5'PFS GGU 3'PFS ACG (mixed) RNA 1: CACCCGUGCAAAAUUGCAGGGGUCUAAAACCUUCUCCAAAUUGUUUCAUCCU RNA 2: GGGAAUGGAUCCACAUCUACGAAUUCGGUAGGAUGAAACAAUUUGGAGAAGACGAGAUCGGAAGAGCACACGU | 18.2 ± 1.8
target 2 MT 5'PFS CUC 3'PFS AAU (mixed) RNA 1: CACCCGUGCAAAAUUGCAGGGGUCUAAAACCUUCUCCAAAUUGUUUCAUCCU RNA 2: GGGAAUGGAUCCACAUCUACGAAUUCCUCAGGAUGAAACAAUUUGGAGAAGAAUAGAUCGGAAGAGCACACGU | 2.32 ± 0.27
target 2 MT 5'PFS GCG 3'PFS UUA (mixed) RNA 1: CACCCGUGCAAAAUUGCAGGGGUCUAAAACCUUCUCCAAAUUGUUUCAUCCU RNA 2: GGGAAUGGAUCCACAUCUACGAAUUCGCGAGGAUGAAACAAUUUGGAGAAGUUAAGAUCGGAAGAGCACACGU | 21 ± 4
target 2 MT 5'PFS CUC 3'PFS AAC (mixed) RNA 1: CACCCGUGCAAAAUUGCAGGGGUCUAAAACCUUCUCCAAAUUGUUUCAUCCU RNA 2: GGGAAUGGAUCCACAUCUACGAAUUCCUCAGGAUGAAACAAUUUGGAGAAGAACAGAUCGGAAGAGCACACGU | 2.5 ± 0.5
target 2 MT 5'PFS CAC 3'PFS UAA (mixed) RNA 1: CACCCGUGCAAAAUUGCAGGGGUCUAAAACCUUCUCCAAAUUGUUUCAUCCU RNA 2: GGGAAUGGAUCCACAUCUACGAAUUCCACAGGAUGAAACAAUUUGGAGAAGUAAAGAUCGGAAGAGCACACGU | 2.3 ± 0.4
target 2 MT 5'PFS GCG 3'PFS AUA (mixed) RNA 1: CACCCGUGCAAAAUUGCAGGGGUCUAAAACCUUCUCCAAAUUGUUUCAUCCU RNA 2: GGGAAUGGAUCCACAUCUACGAAUUCGCGAGGAUGAAACAAUUUGGAGAAGAUAAGAUCGGAAGAGCACACGU | 10.6 ± 2.1
target 2 MT 5'PFS GCG 3'PFS AUG (mixed) RNA 1: CACCCGUGCAAAAUUGCAGGGGUCUAAAACCUUCUCCAAAUUGUUUCAUCCU RNA 2: GGGAAUGGAUCCACAUCUACGAAUUCGCGAGGAUGAAACAAUUUGGAGAAGAUGAGAUCGGAAGAGCACACGU | 15.5 ± 2.1
target 2 MT 5'PFS CGC 3'PFS UCG (mixed) RNA 1: CACCCGUGCAAAAUUGCAGGGGUCUAAAACCUUCUCCAAAUUGUUUCAUCCU RNA 2: GGGAAUGGAUCCACAUCUACGAAUUCCGCAGGAUGAAACAAUUUGGAGAAGUCGAGAUCGGAAGAGCACACGU | 7.9 ± 1.1
target 2 MT 5'PFS CUC 3'PFS AAG (mixed) RNA 1: CACCCGUGCAAAAUUGCAGGGGUCUAAAACCUUCUCCAAAUUGUUUCAUCCU RNA 2: GGGAAUGGAUCCACAUCUACGAAUUCCUCAGGAUGAAACAAUUUGGAGAAGAAGAGAUCGGAAGAGCACACGU | 2.32 ± 0.34
target 2 MT 5'PFS ACC 3'PFS CAG (mixed) RNA 1: CACCCGUGCAAAAUUGCAGGGGUCUAAAACCUUCUCCAAAUUGUUUCAUCCU RNA 2: GGGAAUGGAUCCACAUCUACGAAUUCACCAGGAUGAAACAAUUUGGAGAAGCAGAGAUCGGAAGAGCACACGU | 5.1 ± 0.9
target 2 MT 5'PFS UAU 3'PFS GAA (mixed) RNA 1: CACCCGUGCAAAAUUGCAGGGGUCUAAAACCUUCUCCAAAUUGUUUCAUCCU RNA 2: GGGAAUGGAUCCACAUCUACGAAUUCUAUAGGAUGAAACAAUUUGGAGAAGGAAAGAUCGGAAGAGCACACGU | 14.3 ± 3.1
target 2 MT 5'PFS CGC 3'PFS UCA (mixed) RNA 1: CACCCGUGCAAAAUUGCAGGGGUCUAAAACCUUCUCCAAAUUGUUUCAUCCU RNA 2: GGGAAUGGAUCCACAUCUACGAAUUCCGCAGGAUGAAACAAUUUGGAGAAGUCAAGAUCGGAAGAGCACACGU | 5.5 ± 1.7
target 2 MT 5'PFS CAC 3'PFS UAU (mixed) RNA 1: CACCCGUGCAAAAUUGCAGGGGUCUAAAACCUUCUCCAAAUUGUUUCAUCCU RNA 2: GGGAAUGGAUCCACAUCUACGAAUUCCACAGGAUGAAACAAUUUGGAGAAGUAUAGAUCGGAAGAGCACACGU | 1.87 ± 0.31
target 2 MT 5'PFS CUC 3'PFS AAA (mixed) RNA 1: CACCCGUGCAAAAUUGCAGGGGUCUAAAACCUUCUCCAAAUUGUUUCAUCCU RNA 2: GGGAAUGGAUCCACAUCUACGAAUUCCUCAGGAUGAAACAAUUUGGAGAAGAAAAGAUCGGAAGAGCACACGU | 2.3 ± 0.6
target 2 MT 5'PFS ACC 3'PFS CAA (mixed) RNA 1: CACCCGUGCAAAAUUGCAGGGGUCUAAAACCUUCUCCAAAUUGUUUCAUCCU RNA 2: GGGAAUGGAUCCACAUCUACGAAUUCACCAGGAUGAAACAAUUUGGAGAAGCAAAGAUCGGAAGAGCACACGU | ~4.3
